Results taken from PMC10292688.
Where two headings read alike, the source gives them in different places.

Key:
Assay in all cases: SAXS
[1] = molecular target: AIF R529A mutant (Cβ-clasp) (UniProt O95831)
[2] = molecular target: AIF R529A mutant (Cβ-clasp) (UniProt O95831); remark: listed apart in the source
AIF H454A mutant = AIF H454A mutant (UniProt O95831)

## AIF R529A mutant (Cβ-clasp) (from UniProt O95831 55-613) (natural protein)
[1]
  stoichiometry N: 2
[2]
  stoichiometry N: 2

## AIF H454A mutant (from UniProt O95831 55-613) (natural protein)
AIF H454A mutant
  stoichiometry N: 2
